In patent publication US20020156112A1, “Endostatin-like angiogenesis inhibition” (priority 2000, published 2002):

T1: irrelevant FLR-peptide (Homo sapiens, UniProt P15941, R1131P)
T1 construct: ID No. 2: FLR peptide
T1 sequence (P15941 with tags, fused parts or gaps R1131P): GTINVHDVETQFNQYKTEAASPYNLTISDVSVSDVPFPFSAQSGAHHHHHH

B1: endostatin: human recombinant endostatin (Calbiochem 324746), known angiogenesis inhibitor protein, a dimer in its functional form (protein, UniProt P39060 1572-1754, looked up)
Endostatin: HSHRDFQPVLHLVALNSPLSGGMRGIRGADFQCFQQARAVGLAGTFRAFLSSRLQDLYSIVRRADRAAVPIVNLKDELLFPSWEALFSGSEGPLKPGARIFSFDGKDVLRHPTWPQKSVWHGSDPNGRRLTESYCETWRTEAPSATGQASSLLGGRLLGQSAASCHHAYIVLCIENSFMTASK
modifications: Endostatin
B2: angiostatin: human angiostatin, Calbiochem 176700, angiogenesis inhibitor protein (protein)
chain: YLSECKTGNGKNYRGTMSKTKNGITCQKWSSTSPHRPRFSPATHPSEGLEENYCRNPDNDPQGPWCYTTDPEKRYDYCDILECEEECMHCSGENYDGKISKTMSGLECQAWDSQSPHAHGYIPSKFPNKNLKKNYCRNPDRELRPWCFTTDPNKRWELCDIPRCTTPPPSSGPTYQCLKGTGENYRGNVAVTVSGHTCQHWSAQTPHTHNRTPENFPCKNLDENYCRNPDGKRAPWCHTTNSQVRWEYCKIPSCDSSPVSTEQLAPTAPPELTPVVQDCYHGDGQSYRGTSSTTTTGKKCQSWSSMTPHRHQKTPENYPNAGLTMNYCRNPDADKGPWCFTTDPSVRWEYCNLKKCSGTEA

Tests used:
[1] = test system: His-tagged GRGDS motif peptide; assay: NTA-Ni agarose pull-down with SDS PAGE of eluate and flow through (Example 2); type: binding; details: 0.1 mg/mL protein; imidazole (250 mM) elution
Description: 200 μL NTA-Ni agarose (Qiagen) were washed 2× with 100 μL ddH20, then with wash buffer A, containing 50 mM NaH2PO4, 300 mM NaCl, and 10 mM imidazole at pH 8.0.
A synthetic peptide, was dissolved in DMSO then diluted in phosphate buffer to a final concentration of 1 mM. 100 μL of this peptide solution was incubated with the NTA-Ni resin for 20 minutes at room temperature to allow binding of the histidine-tagged peptide to the NTA-Ni resin. The resin was then pelleted and the supernatant was removed. The resin was washed in buffer A. The peptide bound resin was then divided into two aliquots. A first aliquot was mixed with 100 μL human recombinant endostatin (0.1 mg/mL in 10 mM sodium phosphate buffer, 100 mM sodium chloride, pH 7.4, diluted from stock endostatin, Calbiochem 324746). A second aliquot was mixed with 100 μL human angiostatin, Calbiochem 176700(0.1 mg/mL in 10 mM sodium phosphate buffer, 100 mM sodium chloride, pH 7.4. The beads and angiogenesis inhibitors were incubated on ice 15-20 minutes to allow binding to the bead-immobilized peptide. The resin was then pelleted. The supernatants were removed and reserved for analysis by SDS PAGE (flow through). The beads were then washed 2× with 10 mM sodium phosphate buffer. The histidine-tagged peptides and any immobilized drug were eluted by the addition of 4 aliquots of an imidazole (250 mM) wash.

GRGDS peptide = assay: Gold colloid colour-change binding assay, RGD peptide colloids (Example 6); details: endostatin 0.1 mg/mL; wells A1, A2
Description: (§1) 40 μM NTA gold colloids were prepared which presented the His-tagged RGD peptide (Sequence ID No.1, see Table 1). These colloids were mixed with endostatin (0.1 mg /mL) and turned blue, indicating binding of endostatin to the GRGDS peptide (A1, A2, FIG. 6). Control colloids presenting an irrelevant FLR-peptide (Sequence ID #2, see table 1) remained pink (wells A3, A4). At the highest concentration of vitronectin (0.1 mg /ml), the endostatin—GRGDS interaction is disrupted, and the well remains pink (B1). At lower concentrations of vitronectin, the endostatin—GRDS interaction is not affected and the wells turn blue (B2-B5).

irrelevant FLR-peptide = molecular target: T1, irrelevant FLR-peptide; assay: Gold colloid colour-change binding assay, control colloids (Example 6); details: endostatin 0.1 mg/mL; wells A3, A4
Description: as §1

[2] = test system: RGD-peptide-bound colloids; assay: Colloid/colloid linkage colour-change assay on NTA colloids (Example 7); type: binding; details: 100 ul or 50 ul protein; room temperature, after approximately 15 minutes
Description: (§2) 600 microliters colloids, derivatized with a self-assembled monolayer that presents nitrilo tri-acetic acid, NTA (for the capture of histidine-tagged proteins), was mixed with 60 microliters of 500 micromolar histidine-tagged RGD-motif-containing peptide. 600 microliters of a second set of NTA-Ni presenting colloids was mixed with 60 ul of a 500 uM solution of histidine-tagged GST, an irrelevant protein, as a negative control. Colloids were spun down and resuspended in phosphate buffer to remove residual unbound protein or peptide. Endostatin and Angiostatin, two proteins implicated in angiogenesis and suspected of binding to regions of vitronectin, such as the RGD peptide, were prepared by dialysis into phosphate-buffered saline solution and then 1:10 dilution into PBS from a stock concentration of 1 mg/mL.
(§3) 400 ul phosphate buffer (pH 7.4), 200 ul either RGD-bound colloids or GST-bound colloids, and either 100 ul endostatin or angiostatin, 50 ul endostatin or angiostatin/50 ul phosphate buffer, or 100 ul phosphate buffer (as a negative control) were added to each well of a crystallization dish. Color change was monitored over time at room temperature. […] The histidine-tagged proteins were then eluted using imidazole, and the samples were analyzed by SDS-PAGE.

GST-bound colloids = assay: Colloid/colloid linkage colour-change assay on NTA colloids, negative control protein (Example 7); type: binding; details: 100 ul or 50 ul protein; room temperature
Description: as §2, §3

[3] = test system: resin-immobilized RGD peptide; assay: NTA-Ni agarose resin binding verified by SDS-PAGE (Example 7); details: imidazole elution
Description: as §3, with “The color change was more pronounced in the well that contained 100 ul endostatin than in the well that contained 50 ul endostatin/50 ul phosphate buffer. […] The results were verified by gel electrophoresis. The RGD peptide and histidine-tagged GST were bound to a small amount of NTA-Ni agarose resin at saturating concentration. Endostatin was incubated with the resin and allowed to bind to the protein on the resin. The” for “The”

resin-immobilized GST = assay: NTA-Ni agarose resin binding verified by SDS-PAGE, control (Example 7); details: imidazole elution
Description: as §3, with “The color change was more pronounced in the well that contained 100 ul endostatin than in the well that contained 50 ul endostatin/50 ul phosphate buffer. […] The results were verified by gel electrophoresis. The RGD peptide and histidine-tagged GST were bound to a small amount of NTA-Ni agarose resin at saturating concentration. Endostatin was incubated with the resin and allowed to bind to the protein on the resin. The” for “The”

His-tagged GRGDS motif peptide, sequence (as listed by the source): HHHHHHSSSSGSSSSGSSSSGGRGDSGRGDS
GRGDS peptide, sequence (as listed by the source): as above
resin-immobilized RGD peptide, sequence (as listed by the source): as above

Molecule	co-elution with GRGDS motif peptide (SDS PAGE) [1]	colloid colour (binding to GRGDS peptide) (GRGDS peptide)	colloid colour (binding to FLR peptide) (irrelevant FLR-peptide)	colour change of RGD-peptide-bound colloids [2]	colour change of GST-bound colloids (GST-bound colloids)	binding to resin-immobilized RGD peptide (SDS-PAGE) [3]	binding to resin-immobilized GST (SDS-PAGE) (resin-immobilized GST)
B1	co-eluted	turned blue	remained pink	color change from red to blue	No color change	bound	did not bind
B2	did not			No color change	No color change		
